According to PMC7866087, “Evaluation of Computationally Designed Peptides against TWEAK, a Cytokine of the Tumour Necrosis Factor Ligand Family” (International Journal of Molecular Sciences, 2021):

Target: T1, human His6-TWEAK protein (Homo sapiens, UniProt O43508)
T1 construct: purchased R&D Systems
T1 sequence (O43508 97-249 limits assumed): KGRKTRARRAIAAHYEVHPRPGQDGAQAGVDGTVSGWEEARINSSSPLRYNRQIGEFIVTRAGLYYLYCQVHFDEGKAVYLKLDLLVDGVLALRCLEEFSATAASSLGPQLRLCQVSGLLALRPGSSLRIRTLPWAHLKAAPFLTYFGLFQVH
Assay: SPR binding of peptides to immobilized His6-TWEAK
Settings: for binding affinity for immobilized TWEAK: negative controls, global curve fit not attempted
Excerpt: SPR biosensor interaction analysis, a label-free screening approach, was used for real-time monitoring of the kinetics and affinity of peptide hits to TWEAK previously identified by cell-based screening. Peptides from pools 1 and 5 were selected both as positive (49, 30, 35 and 43) and negative hits (1 and 42). For our purposes, TWEAK was chosen as ligand, while peptides were chosen as analytes and passed across ligand-derivatized surface. Nitrilotriacetic acid-coated sensor chips (NTA chip) and a coupling approach that results in the capture of a His6-protein in a non-random orientation by the His6 epitope prior to direct free amine-based covalent coupling was used for histidine-tagged TWEAK immobilization.
After chip validation, peptides selected on our cell-based microarray screening were tested.
For each titration, a zero-analyte surface as a control was subtracted from test sensorgram as well as non-specific binding to the blank flow cell without protein; and the chip surface was regenerated in order to remove any remaining analyte. The black curves show the experimental data, while the overlaid red lines represent a global fit of the entire data set to a 1:1 Langmurian interaction model. The fitting process provided both kinetic association and dissociation rate constants (Ka and Kd), as well as equilibrium dissociation constant (KD) values indicated in Figure 6.
Binding assays were performed at 25 °C in a Biacore 3000 instrument (GE Healthcare, Uppsala, Sweden) using nitrilotriacetic (NTA) sensor chips (GE Healthcare) and HBS-EP (0.01 M HEPES pH 7.4, 0.15 M NaCl, 3 mM EDTA, 0.005 % v/v Surfactant P20) as running buffer. Histidine-tagged human TWEAK (His6-TWEAK) protein (R&D Systems, Minneapolis, MN, USA) was covalently immobilized on the sensor surface using a capture coupling method. Briefly, the NTA surface was first stabilized by injection of regeneration buffer (20 μL EDTA-containing running buffer at 20 μL/min) followed by Ni^2+ binding to the surface (40 μL of 500 μM NiCl2 in running buffer at 20 μL/min). The carboxymethyl dextran surface was then activated for primary amine coupling by injecting coupling solution (30 μL of a 1:1 N-hydroxysuccinimide (NHS)/1-ethyl-3-[3-(dimethylamino)-propyl]carbodiimide hydrochloride (EDC) mixture at 5 μL/min). His6-TWEAK protein in pH 7.4 running buffer was then injected over the surface (60 μL of 10 μg/mL His6-TWEAK at 5 μL/min). To block uncoupled primary amines on the sensor surface, ethanolamine was passed over the surface (35 μL 1M ethanolamine at 5 μL/min). Ligand surfaces were finally conditioned with a 20 µL injection of regeneration solution containing 350 mM EDTA at 20 μL/min. Immobilization levels ranged from 1500 to 7000 resonance units (RUimmob) to test different ligand densities. A blank flow cell on the chip was created by simple injection of 20 μL of regeneration buffer injected over the sensor surface.
Binding experiments using a monoclonal anti-TWEAK antibody (Abcam ref. 199405, Cambridge, UK) were run to ascertain adequate functionalization of the immobilized surface. Selected synthetic TWEAK-Fn14 inhibitory peptides at two-fold serial dilutions from 800 µM to 0 µM in running buffer were flown over the chip for 5 min at 35 µL/min. The dissociation phase was monitored for 10 min at the same flow rate and followed by a regeneration step with 10 µL of 18 mM NaOH. Specific binding responses for each channel were obtained by double referencing; subtracting non-specific binding to the blank flow cell plus an internal reference standard, namely buffer injection response. Each sample was run in triplicate. The experimental data were fitted to a 1:1 Langmuir binding model by the BIAevaluation software version 4.1 (GE Healthcare, Uppsala, Sweden).

[1] = 25 °C, HBS-EP pH 7.4, Biacore 3000, NTA chip, 1:1 Langmuir global fit, representative of at least three independent experiments

Row | Substance | binding affinity for immobilized TWEAK | ka [1] [M⁻¹ s⁻¹] | kd [1] [s⁻¹]
1 | 1: GNGTDDNSGTSY [Peptide 1] | negligible binding affinity | – | –
2 | 42: YNGHVKDD [Peptide 42] | negligible binding affinity | – | –
3 | SWYDHMAGDSSY [Peptide 35] | – | 2.06 | 0.00285
